Molecular target: rdx, Q9VFP2-2
Sequence (Q9VFP2 456-829): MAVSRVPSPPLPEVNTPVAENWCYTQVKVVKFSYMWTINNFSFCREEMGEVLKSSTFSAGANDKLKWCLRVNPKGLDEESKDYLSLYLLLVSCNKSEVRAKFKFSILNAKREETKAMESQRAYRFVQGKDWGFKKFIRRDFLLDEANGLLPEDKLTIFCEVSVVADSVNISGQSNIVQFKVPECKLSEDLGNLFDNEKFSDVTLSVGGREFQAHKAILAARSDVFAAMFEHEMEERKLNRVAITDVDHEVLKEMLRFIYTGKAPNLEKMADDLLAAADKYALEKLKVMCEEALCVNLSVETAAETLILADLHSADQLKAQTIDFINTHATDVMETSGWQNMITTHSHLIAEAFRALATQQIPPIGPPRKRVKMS

Row | Substance | effect of a mutation on the interaction
1 | Transcriptional activator cubitus interruptus (Drosophila melanogaster (Fruit fly)), P19538 S373D | disrupting interaction strength
2 | Transcriptional activator cubitus interruptus (Drosophila melanogaster (Fruit fly)), P19538 S372A | disrupting interaction strength
3 | Transcriptional activator cubitus interruptus (Drosophila melanogaster (Fruit fly)), P19538 S375D | disrupting interaction strength
4 | Transcriptional activator cubitus interruptus (Drosophila melanogaster (Fruit fly)), P19538 S375A | disrupting interaction strength
5 | Transcriptional activator cubitus interruptus (Drosophila melanogaster (Fruit fly)), P19538 T374A | disrupting interaction strength
6 | Transcriptional activator cubitus interruptus (Drosophila melanogaster (Fruit fly)), P19538 T374D | disrupting interaction strength
7 | Transcriptional activator cubitus interruptus (Drosophila melanogaster (Fruit fly)), P19538 E369A | disrupting interaction strength
8 | Transcriptional activator cubitus interruptus (Drosophila melanogaster (Fruit fly)), P19538 S373A | disrupting interaction strength

Source: IntAct's records for PubMed 19955409
